Test results as given in patent US11781164B2, “Demethylation of reticuline and derivatives thereof with fungal cytochrome P450” (priority 2017, dated 2023).

Experiments:
thebaine [1] = assay: Demethylation of thebaine by new cytochrome P450 fungal and plant homologs co-expressed with CPRs in S. cerevisiae; settings: 0.5 mM thebaine, SC or DELFT media pH 7, 72 h, 30° C.; co-expressed with Cel_CPR_co, Tp_CPR_5866, Tp_CPR_DN10898 or POR1
thebaine [2] = assay: Bioconversion of thebaine (N-demethylation to northebaine) by S. cerevisiae expressing cytochrome P450s and CPRs, LC-MS; settings: 0.1 mM thebaine, 0.1 M potassium phosphate buffer pH 7, 72 h, 30° C.
oripavine = assay: Bioconversion of oripavine (N-demethylation to nororipavine) by S. cerevisiae expressing cytochrome P450s and CPRs, LC-MS; settings: 0.5 mM oripavine, 72 h

Row | Molecule | Northebaine production (thebaine [1]) | support of N-demethylase activity of P450_DN15259_c0_g1_i7_A by CPR (northebaine) (thebaine [2]) | further results
1 | CYPDN4: cytochrome P450 homolog I1CCX6 from Rhizopus delemar, codon-optimized (protein, Rhizopus delemar) MVKSFLKAESPTDRYKRIIHPVASKGNGFYVSKVPFLWAVYVTNPVVAKQVLLKSDIFPKNHAVFHQIGKDSPFTQFLGLDNVALSNGDVWKKQRKVMNPAFHRSLPIKTMASVVNTLFSVIDNSDGPVLITSAMQNFTLDVLGLAIFGFEFKALQGDPDNWTKTYKTVIESLFDPVMNVFATFDTLLTWVYPKRRECSVAISKMNLKFDELAKQKRAEVKSGAYANVPDHDKDLLTLMLEAMEKGEALTSQDELRHNIAVFFLAGHGTTAHTLSFCFYHLAKNKHIQRKLREEIISVLGDEPVDIVPSLEQMKHMKYMNLVIKENLRMNTPADTLFTRDTVEDINLAGHIIPKDTAISIDINAIHHDPKYWHNPEHFIPERFAEGGEQESHEGLTWLPFSNGSRQCIGMNFSLAEQRLVLAMLVRKYEIDIPKDSIHYERILFDRPGNIAPLSLGLTFTKRY | − |  | 
2 | CYPDN7: cytochrome P450 homolog I1CBZ0 from Rhizopus delemar, codon-optimized (protein, Rhizopus delemar) MALEGALPLFQKRSKSSYIVAAILLITVKQIYSFFRVPTNLRHLPCVSFFAMAKSLLTCEPPYNRFKRITFPAIQEGNGFYVSKIPTGWTVYVANPVAAKQLLLKSNNFPKSHYGLDTIGEKSTAVQFVGRDNVVLSNGEIWKKQRKIMNPVFHRSMPIKTVASLVPLLFSAIEEANGRIMITPKMKDFTLDALGLTIFDFDFKALQGDPDNWTSIYRLITRSIFDPISYVFCALEPLLVYVYPKRRRSVDAVAKINAKFDQVISKKREELQNGIFSNKPDNEKDLVTLMLEAGMQEDVSITNEELRHNMAVLFLAGHDSTSNTLSFCLYHLAKNKRAQQKLREEIINILGDDDIDIVPSLEELKQMKYMNMVIKETLRLGMPLDLLTPRKTVEDTFVADTFIPKDTVIAVDAGALHRDPRSWKDPDEFVPERFEDDGEQNSHEGLTWVPFSNGTRQCIGMNFSLMEQRLTLTMLLRKYEVDLPKDSIHYDHIIYEQPSYVCPESLELIFTKRY | + |  | 
3 | Cel_CPR_co: codon-optimized cytochrome P450 reductase from Cunninghamella elegans (protein, codon-optimized; Cunninghamella elegans) MAQQTPAVIDTLDLILLGSIGLGTIAWFTRRQLSERLFGTGQSNATPKPTTPQAPKRERNFVKVMEQQGRKVIFFYGSQTGTAEDFASRLAKQCSQKYGVSCMTADIEMYDLSYLDTLSEDSLVCFVMATYGEGEPTDNAVDFWEQFITDESPVFSEGGETLENLRYLMFGLGNKTYEHYNAVARILDKKLTGLGAKRIGERGEGDDDGSLEEDFLAWQESMWPTFCDALGVDENNAQQGPRQASYSVDELKEEYKNDDVYFGELGTKSKDSSRVVYDAKRPYNAPITTRELFNSSERHCLHVDIDISGTNLSYQTGDHVAMWPTNNEDEVLRLANILGLQDKLDNVISVKAIDPAAPKQHPFPVPTTYRAIFRHYIDICAPASRQSLMSFVEFAPTDSAKDLLKLLATDKDEYRLKVGEAVRNLGEVLELVSGNDKDTQPGSFTSVPFDLIVETIPRLQPRYYSISSSSKENSSIISATCVTLAYQPDPTPDRTVYGVNTNFLYRIHTQSSDNDIQGLPKYDLAGPRKAFLNEQGQSHKLPIHIRRSQFKLPRNTSCPVIMIGPGTGVAPFRGFVRERALQKKEGKSVGPTVLFFGNRHSEHDFLYSDEWPELFNTLGDDSKLITAFSRETEHKVYVQHRLEENGKDIWQLLEKGAYIYVCGDARNMARDVNQTFVNLAMEYGEKTEQKALDYVKSLRNTGRYQEDVWS |  | found to support N-demethylase activity | 
4 | CPR_DN10898_c0_g1_1A: native cytochrome P450 reductase clone from T. piriforme (pEV31730) (protein, Thamnostylum piriforme) MSKKPTTFAISPLDLLLLGTLGIGALLYITRKLRAAPPPAAGDAARPSDKAPSNKPERNFVKLMEQQKRRVIFFYGSQTGTAEDYASRLAKESSQKYGVSSMAADIELYDLSYLDTVPEDKLVVFVMATYGEGEPTDNAVDFWETLTDEAPMFSLGEELAPLRNLNYIVFGLGNKTYEHYNEVARVLDKRLAALGATRHGVRGEGDDDASLEEDFLAWQEDMWPAFCAALNVDESNAQAGPRQAMYGVKELEGHDENGLFLGELGEWLQPEQLQKQTAVHDAKHPYLAPIAASRDLFSHAADRHCLHLEVDIASSNLTYQTGDHIAIWPTNNDVEVLRLATVLGLADKLDTAIMVKALDSAASKKYPFPVPTTYRAAFKHYLDICSPASRQTLISLVDYAPTASSKDALHKLATDKDAYKTQVSEAARNLAEVLELCQDDEGTTAAPGFFSTVPFDLIVESVSRLQPRYYSISSSSLTSPKSVAVTAVTLSYQPSTTKSRTVYGVNTNYLWRIHAPHDASVPAYDLDGPRNTLQGKKVPVHIRRSTFKLPRNTKLPVIMVGPGTGVAPFRGFIHDRVHQKQSGKEVGPTVLFYGCRHSKQDFLYAEEWPALFEALGEGSQLITAFSRESAQKVYVQHRLKEHGEQMWKYIEQGAYIYVCGDAKNMARDVQQTFIEFAQALGNKTESQAQDYVKNLRNTGRYQEDVWS |  | yielded more northebaine | 
5 | CPR_DN5866_c0_g1_Cd9: native cytochrome P450 reductase clone from T. piriforme, day 9 cDNA (pEV31725) (protein, Thamnostylum piriforme) MAQSSPALLDSLDIVFLGTIGLGTIAWFARRQIAERIFGSKDDANKNVGNGNAPTAPKRERNFVKVMQEQGRKVIFFYGSQTGTAEDYASRLAKECSQKYGVSCMTADIELYDLTYLDTVPEDFLVFFIMATYGEGEPTDNAVDFWEQLTEEEPQFSEGDTLGNLRYVVFGLGNKTYEHYNEVARRMDKLLTKLGAKRIGERGEGDDDASLEEDFLAWQDSMWPAFCDALGVDESNGSSGPRQAMYAVEELEGQEAVYLGELGEKPKEGVKVVYDAKRPYNAPLVSQDLFKNTDRHCLHIDIDVSDSNLSYQTGDHIAIWPTNSDDEVARLASLLGLTDKLDTSVMVKAIDSTASKQYPFPVPATYRSIFRHYLDICAPASRQTLMSLVEYAPTEASKEALRLLSKDKDEYRLKVGEAVRNLGEVLELAAGADARPGLFSTVPFDLIVESVSRLQPRYYSISSSAKESPKVIAVTAVTLTYNPDPTPERTVYGVNTNYLWQIHAAKHNVNDGQRYPTYDLAGPRNALQGAKVPVHIRRSQFKLPRNPTVPVIMVGPGTGVAPFRGFVRERAAQKTDGKPVGPTLLFFGCRNSQQDFLYKDEWPELFATLGDESRIVTAFSRETPQKVYVQHRLQENGEELWNLLQKGAYIYVCGDAKNMARDVNQTFVNFAIEFGGQTEEKAHDYVKNLRNSGRYQEDVWS |  | yielded more northebaine | 
6 | P450_DN12791_c0_g1_C: native cytochrome P450 clone from Thamnostylum piriforme (plasmid pEV31522) (protein, Thamnostylum piriforme) MAILQNLVLQSDQRHLGVVTAAVFLSAYALYRHESKKELGNECPTVPYTNPMFGSTDEYRKNPAAFVEKWSAALGPVFRVHIFGRMQTVVSGRYVREVLFNDNFSFVEGIRTRFDLRLLTGIPNSHLNDKDVREVVVKSLTAQMKKYTPRAVHYLSVGLQEALGDLKDPRTLDNLFLTVQNMVAKASASIFVGEELCNNIELVDTFKHVTSDIGSEIRLDNTWLEFFKTINQIRMWYVGKHSPRVTKHRRQLIQAMAPEIDRRLQGLAGNDPSWTRPEDILQEIMENYPSPSTVPADIYTYYANWMIVLIFASVHTTTEHATIVLYRLLQQPELIDELLQEQKEALGQGTVFTGEVIRKLVKLDSVCRESLRIKNEYFGLPHRNMSHENISLSNGVVIKPGDNVMLNVWTNHHDSDLQKDVHGNHDKFEPFRYVNADRPATKIGDDYLIFGEGKHACPGRWFALQEIKTIVSVLIRDYTLTPCGPIVFPSGTSTGIPSGEVTIQRKSEV |  |  | nororipavine titers (oripavine; pH 7, co-expressed with Cel_CPR_co): highest nororipavine titers; oripavine N-demethylation (nororipavine), screening of T. piriforme P450 candidates (oripavine; pH 7, with CPRs from C. elegans, G. fujikuroi and S. cerevisiae): identified as an oripavine N-demethylase
7 | CYPDN5: cytochrome P450 homolog A0A1X0RYU8 from Rhizopus microsporus, codon-optimized (protein, listed as Rhizopus microsporus) MELTEIAIETYHRALDKLVPILQKRSKRSYIGVAVALVVLERIYSFFRVPKSIRHIPAVPYFAMAKSFLTSEAPSSRHQRIVLPVIEKGNGIYVNKLPLEWTVNVATPTSAKHVLLKSEIYPKSESFLKLLGPQSPAVLFLGGKNVGFVNGDAWRKQRKIMNPAFHRSMPIQTMASVMPDFFSAIDKYGDEGIPISTIMRDFTLDVLGHTAFGFDFKALKGDPDNWTRTYHIINNALFNPTANMLTSLNPILSIISPERRRILEAIKKLNGMLEAMIKQKRQEVQSNAQAHAPENEKDLLTLMLEAQQRGEGLATDEELKHNVSGFFLAGHDTTSETLSFYFYNIAKNKDVQRKLREELNAVLGDKPVDVIPTLEQLKSMEYLNCTIKENLRLNGPADNVLPRVATEDMVVDGTPIPKGTVVNVDIHAIHHDTRYWKDPYKFVPERFLPGGEHDSHSGMTWLPFGNGARQCLGMNFSLAEQRLVIAMTVRKYDIEVPKDSIHYDHPILESSKTKAPASLKLIFRKRY | + |  | 
8 | CYPDN6: cytochrome P450 homolog A0A0B7NKC0 from Parasitella parasitica, codon-optimized (protein, listed as Parasitella parasitica) MAVLCLVLERIYASYAVPPSYLRHYPKVSLFDMLKSFYIKESVASRNKRLIAPLTNAGHGFYVCRIPLNWTIYVTDPLAAKTLLLKSENFPKNKAIFTALGDSSPVIKFMGKENVAMSNGEEWKKQRKIMNPAFHRSQPVKTFGNVMPDLFALIDQDPERVFITPKMKSFALDALGLSAFGFDFQSLKGDPEGWTRKYNVVISTLFNPFVNIFASLDFLVKYISPERRRVIKATDEFNSMLGELADKRRQEILDGEKKNIPENEKDLLTLMIEADIRDNIKTTTTELRHNMAIFFLAGHDSTANTLSLCLYNLAKHKHVQKKARQEVLAILGDEPLDVIPTAEDLKKLDYVNMVIKENLRRNGPADNLMSRDTQQDMNLNGTIIPKGSKVSVNVAAIHLNPKIWHDPENFIPERFEQGGEFEQHDGFTWIPFSNGSRQCLGLNFSLTEQRVVLCMILKRYEIDIPKDSIHYNEIVFDGAFTFAPQSLELSFKRRY | + |  | 
